# Target: ERBB2 (HER2) (Homo sapiens?) (UniProt P04626)
# Test: filter
# Settings: for Kd: same buffer, 37 C
sequence,measurement,setting,value
GAGTGACCGTCTGCCTGGTTAGACTGAACGCACTGAGGGCCGCAGCCTATCTGAAGGCAGCCACACCACCAGCC [clone #10 (9-ER-N-B09_B06)],Kd,"6 (n) in core = NapdU [n positions 19,20,25,34,48,50,52 = modified dU], Bmax 0.25",3.71 nM
"GAGTGACCGTCTGCCTGATGTTAGAGTTTGCCTGAGTGCCTCGCAAGGGCGTAACAACAGCCACACCACCAGCC [clone #11 (1194-2, 9-ER-N-B12_C06)]",Kd,"6 (n) = NapdU [n positions 19,21,22,27,28,29,33,37,41,52 = modified dU], Bmax 0.29",3.06 nM
GAGTGACCGTCTGCCTGGTCTGAACACCGAGATTAGCCGAACGAACGGTATGGACGTCAGCCACACCACCAGCC [clone #33 (9-ER-N-F02_A09)],Kd,"6 (n) in core = NapdU [n positions 19,21,33,34,49,51,57 = modified dU], Bmax only 0.03",9.79 nM
"ATGTTAGAGTTTGCCTGAGTGCCTCGCAAGGGCGTAACAA [AP001-24 (1194-34, #11 short)]",selectivity ratio (ERBB2 over EGFR affinity),"6 (n) = NapdU [n positions 2,4,5,10,11,12,16,20,24,35 = modified dU], affinity for ERBB2 relative to EGFR, curve in figure only",> 1000 fold

# — US20150005368
